Test results from the domain aggregation screens of Martell et al. (2025).

Test: soluble fraction after stress (log2 fold change); higher = more stays soluble; pooled small domains, quantitative proteomics
Settings: stress: 50 degC
In short: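 After stress at 50°C, the amount of each protein still soluble was measured. This was done on pooled custom libraries of small protein domains, using high-throughput quantitative proteomics. The figure given is a base-two log fold change and stands for aggregation propensity, with higher values meaning more protein stays in solution.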

Sequence	soluble fraction (log2)
HMLDKIRTYIDNSFTGVNETKKVKELKDELFENLKEKYNDQIQDGKTEQEAYNSVISGIGDLSELIESVK	0.553
HMLDKKKHLEQGRKIIEDQLAKYKIQPSFDTLKKLSAYYGLNNKEQLYAQVGMGFLELENLDEILQ	≥ 0.62
HMLDLPVRTINGRQYYYYEVRNRETVYGLSKRLGVTREEIVRYNPSMADGLKRGAILYFPVDEFSDRI	-0.281
HMLDLSDFEVVRDLYLSEQIWNVGDLIIARSKKDDTYKAWEIIRKGTNYVTGIDESHKVEKIWLHDILI	-1.4
HMLDSPHDDLNRKIVQMLQNDGRLPYKDIAEVLSVSEGTVRNRVQRMRDAGMLNIVALIDPMAI	0.158
HMLDTPLTARELDVLYLMRQRMSAKEIAKQLGIATMTVNRHAANLYRKLGVNTRWDAVYRAEEVGILPP	-0.992
HMLDVNLIFSRPGFSLSAAFTLHAGGITVLRGDSGSGKTTLADLLSGAIAPQKGRILSDGDIWFDAASGIN	0.22
HMLDYITLSPQELGKLLSAGNGDAAMVYLYMKATGDVTLKQAETQLGMTNQNLAWAESLLKRLGLMD	-0.556
HMLDYKSALQELLQAQRRSRPRYEVISTEGPDHERVFEVAVWLDNEELGRGKGRSKREAEHQAAQAALTQL	0.068
HMLDYQLQVFKDTLEANRKHRGQKIVFIHGKGEGVLRRALIHALNYQYKKFTYQDASFREYGYGATQVTI	-0.103
HMLEEIDYPEEQLQLLFAWSRDHVQSTPPGLPVVDDHVWHILVRGYGATDQRTEAFALLASYAGFP	-0.0919
HMLEIDPPVDEISVSRKAFYEAAGYKVNPYTHIPPRYRKEFEEHSFVVMSWPRELPEETYRKFDRYLRDV	0.103
HMLEIRGFTVLLSDRGIVGIIEEIIQNPGQDLLRILSPEKREILVPLHSDLITGINKKKKTITMNLPDGL	-0.465
HMLELTGEEEFVIRTLTRQGDLHINALVVETDIPINRMISLLFELEMKGVVKALVGGVYHLLG	-2.04
HMLELTVSDKMARLMAWRNRRRVNLSDQELHRIAAAPKQSPESILKMLPGFLQDSVPEIWAELTGGRP	-0.192
HMLENSLDHIEGIGPKTKDTLLTYFKSVSKIKSANPSILAELIGAAKTKILLAAFEKEKTTS	-0.017
HMLENYEGFKQKILKLTGIDLSSYKERQMRRRIDSLIHRNNYDDYDEYFKALTQNSNLYDEFINYLTI	-0.539
HMLEQEDMYGYQMIETLRERSEHSFDLKAGTLYPLLHALEQKGLITARDEASAAGRPRRYYHLTDAG	-0.144
HMLERPLFTPEQYGRFRGKEARIRLSNPVEGRKTLTGSIVEATEERIVVFVEEEEREVTVPFQWIKSGNL	-0.435

Sequence	soluble fraction (log2)
HMLESVMHSRIAEIISREGTAPAHMSMQEKIRVVHKLDADGILMMKGAVAEIADQLSVSVPTIYRYLNKPQ	-1.8
HMLETILQIGKDGVGENLVKQVNDALEARELIKGRVLDNNLELDARTAAQILAKATRSEVVQVIGTKFV	-0.0922
HMLEVTQTDVKMYTTSGTPVYAAPDLNSAIVVYLERFVNVTVTGITDNGFYRVNLNGDYYIPGPYLISSV	-0.369
HMLEYIEPRTAVQIHGIKAKPELNGKRGMVMGYAPERMRYRVRIDVGEGTGGKESEEVYLKPENVIAVK	0.0778
HMLFKGDTREENVILEFLSKNGTTSSDAIIKQTGLSASEFNQAITMLELKGLALNNGGEKWSL	-0.0779
HMLGDAVLRQVLETIPEDPAVDYLELRRNTGMTEADLDRVLADLENLGVINKKRTVEQVLYWRT	-0.294
HMLGDAWSMLILRDAHSGFSRFDQFRKSLGIAPTMLTKRLSVLVDEGLLEKRQYSEHPPREEYVLTQAGQD	0.0822
HMLGERIRTLRKEIGMSVTELARRVKTSPSHISEIERGEKMPSLNLLVKIAKELKTSIDYLTGLVG	-0.0679
HMLGNIERALEMLQEVAATMDPVDIRLLLSMAQVESVRGNTEAAVKLIDEALVIDPGNERIEQIRLRVL	-0.558
HMLGRPDMSPIPEGSRNNDLHAWGFGRLANHPDNKRQIEADFFERGRISGLGDAEIRASWNSILRQLGHQ	0.14
HMLGSVRTIRQVLDDGRLIVADGGGNPSVIRRSGALAHETFANGQRVIVDPSGRLALELLPD	0.314
HMLGVLEYYNNGQKKSERTFKGGMQIYTEWYENGQMKAEERKWIDQLGSLKFLNLLSTEWDENGNEISRME	-1.34
HMLGYGEQEREAQKYLEMHTAFQADPSLQKMYLPENQYALISKVMEMTGIKNVKSYLTPPNEL	-0.0174
HMLHVRSALMSELDGIEGIGEKRKRLLFDAFITRDAIAAATLEQLMAVKGMNRPSAEAVHKHFHG	-0.53
HMLIELKIPSEWAGKSLHTLNLRQNYNVNVIGFRDEKSGKLNTHFDPSKKLPDEGIILVVADNRTLEKF	-0.837
HMLIIDLPDFTNKKLSELQQWADANQITLKIVEKDVSSKPYDTILEQTPAKNKYEKIVKGSTMTVTVNIK	-0.562
HMLINFPNKLKRLRLANNLTQQELANILETTKQAVSSYESGKSTPSLNSLIKLSEHFNISLDSLVFD	0.183
HMLINIKTNSAVNVRSGPGMGFEVVNTYPSGYILQAKEMQKDGGDNVWYKVKDGWLSANYTIDI	-0.198
HMLINPLDILRNFNLSLYDDSRDSASNKEIDEIFESIKTNNSHIFSTLKAYRIPLPIASLIIKKIIKITLE	-0.534
